Source: paper PMC10232555

Target: Vim93-302-Eb1 (vimentin residues 93 to 302 followed by the Eb1 capping motif) (UniProt P08670)
Experiment: SEC-MALS; data not shown; HS conditions

stoichiometry N: 4
Substance: Vim93-302-Eb1 (vimentin residues 93 to 302 followed by the Eb1 capping motif) (from UniProt P08670 93-302) (domain or fragment)
